Reference: publication PMC5296908
pKd: −log10 of the molar value.

Target: ADAMTS17-PCD (human)
Assay: SPR; ADAMTS17-PCD (3300 RU) or ADAMTS17-AD (2530 RU) amine-coupled to a CM5 chip, BIAcore 3000; analytes flowed at 20 μl/min; 25 °C; TBS with 2 mM CaCl2 and 0.005% SP20; 1:1 stoichiometry assumed

pKd: 5.85
Substance: ADAMTS17-PCD (domain or fragment)
